# Experimental data as given in patent US20190241654A1 (published 2019).
# Biological target: T1, recombinant extracellular domain of CD47 (UniProt Q08722 19-139, limits assumed)
# T1 construct: extracellular domain; Analyte flowed over the captured antibodies in SPR; also called CD47-ECD
# Experiment: SPR; antibody captured on anti-human Fc, CD47-ECD flowed 0-100 nM; 1:1 Langmuir
# Experimental: The binding kinetics of anti-CD47 antibodies to the recombinant extracellular domain of CD47 were determined by using surface Plasmon resonance (SPR, MASS-1, Sierra Sensors; T200, Biacore, GE Healthcare Life Sciences). Anti-human Fc (P/N: BR-1008-39 (GE Healthcare Life Sciences)) was immobilized on a High Capacity Amine chip (P/N: SPR-AS-HCA, Sierra sensors) or CM5-S Chip (GE Healthcare Life Sciences). CD47 antibodies were captured on Human IgG FC and CD47-ECD was flowed over the surface at various concentrations ranging from zero (for double referencing) to 100 nM. In order to determine KD's, antibodies were ranked using a 1:1 Langmuir model.
# T1 sequence (Q08722 19-139 limits assumed): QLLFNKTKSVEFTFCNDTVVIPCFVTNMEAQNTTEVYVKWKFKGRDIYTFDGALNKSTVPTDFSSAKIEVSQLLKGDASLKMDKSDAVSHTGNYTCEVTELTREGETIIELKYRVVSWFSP
Binder,Kd,koff,kon
"Ab356/Ab1127 (antibody, V domains shown, FR and CDR L2 variant; Label printed HC first; r460 used; also called HC Ab356 / LC Ab1127) VH: QMQLVQSGAEVKKPGSSVKVSCKASGFNIKDYYLHWVRQAPGKGLEWMGWIDPDQGDTEYAQKFQGRVTITRDRSTSTAYMELRSLRAEDTAVYYCNAAYGSSSYPMDYWGQGTTVTVSS VL: NIQMTQSPSSLSASVGDRVTITCRASQDIHRYLSWFQQKPGKVPKHLIYRESRFVDGVPSRFSGSGSGTEFTLTISSLQPEDFATYYCLQYDEFPYTFGGGTKVEIK",4.76 nM,0.0106 s⁻¹,2.22e+06 M⁻¹ s⁻¹
"Ab356/Ab1121 (antibody, V domains shown, FR and CDR L2 variant; Label printed HC first; the entry in numeric order (r442) is used; also called HC Ab356 / LC Ab1121) VH: QMQLVQSGAEVKKPGSSVKVSCKASGFNIKDYYLHWVRQAPGKGLEWMGWIDPDQGDTEYAQKFQGRVTITRDRSTSTAYMELRSLRAEDTAVYYCNAAYGSSSYPMDYWGQGTTVTVSS VL: NIQMTQSPSSLSASVGDRVTITCRASQDIHRYLSWFQQKPGKVPKHLIYRYIRFVDGVPSRFSGSGSGTEFTLTISSLQPEDFATYYCLQYDEFPYTFGGGTKVEIK",1.08 nM,0.00272 s⁻¹,2.53e+06 M⁻¹ s⁻¹
"Ab480/Ab1120 (antibody, V domains shown, FR and CDR L2 variant; Label printed HC first although the head says LC/HC; also called HC Ab480 / LC Ab1120) VH: QMQLVQSGAEVKKPGSSVKVSCKASGFNIKDYYLHWVRQAPGKGLEWMGWIDPDQGDTEYAQKFQGRVTITRDRSTSTAYMELRSLRAEDTAVYYCNAAYGSSSYPMDYWGQGTLVTVSS VL: NIQMTQSPSSLSASVGDRVTITCRASQDIHRYLSWFQQKPGKVPKHLIYRYVRFVDGVPSRFSGSGSGTEFTLTISSLQPEDFATYYCLQYDEFPYTFGGGTKVEIK",1.05 nM,0.00238 s⁻¹,2.28e+06 M⁻¹ s⁻¹
"Ab480/Ab1121 (antibody, V domains shown, FR and CDR L2 variant; Label printed HC first; r442 used; also called HC Ab480 / LC Ab1121) VH: QMQLVQSGAEVKKPGSSVKVSCKASGFNIKDYYLHWVRQAPGKGLEWMGWIDPDQGDTEYAQKFQGRVTITRDRSTSTAYMELRSLRAEDTAVYYCNAAYGSSSYPMDYWGQGTLVTVSS VL: NIQMTQSPSSLSASVGDRVTITCRASQDIHRYLSWFQQKPGKVPKHLIYRYIRFVDGVPSRFSGSGSGTEFTLTISSLQPEDFATYYCLQYDEFPYTFGGGTKVEIK",1.14 nM,0.00303 s⁻¹,2.67e+06 M⁻¹ s⁻¹

# More lines, now with the values ahead:
Kd,koff,kon,Binder
0.553 nM,0.00549 s⁻¹,9.93e+06 M⁻¹ s⁻¹,"Ab482/Ab387 (antibody, V domains shown, FR variant of AbParental; also called LC Ab482 / HC Ab387) VH: QMQLVQSGAEVKKPGSSVKVSCKASGFNIKDYYLHWVRQAPGKGLEWMGWIDPDQGDTEYAQKFQGRVTITRDRSTSTAYMELRSLRSEDTAVYYCNAAYGSSSYPMDYWGQGTLVTVSS VL: NIQMTQSPSSMSASVGDRVTITCKASQDIHRYLSWFQQKPGKVPKHLIYRANRLVSGVPSRFSGSGSGTEFTLTISSLQPEDFATYYCLQYDEFPYTFGGGTKVEIK"
4.68 nM,0.0109 s⁻¹,2.33e+06 M⁻¹ s⁻¹,"Ab480/Ab1122 (antibody, V domains shown, FR and CDR L2 variant; Label printed HC first; r445 used; also called HC Ab480 / LC Ab1122) VH: QMQLVQSGAEVKKPGSSVKVSCKASGFNIKDYYLHWVRQAPGKGLEWMGWIDPDQGDTEYAQKFQGRVTITRDRSTSTAYMELRSLRAEDTAVYYCNAAYGSSSYPMDYWGQGTLVTVSS VL: NIQMTQSPSSLSASVGDRVTITCRASQDIHRYLSWFQQKPGKVPKHLIYRYERFVDGVPSRFSGSGSGTEFTLTISSLQPEDFATYYCLQYDEFPYTFGGGTKVEIK"
1.32 nM,0.00434 s⁻¹,3.29e+06 M⁻¹ s⁻¹,"Ab495/Ab480 (antibody, V domains shown, also called LC Ab495 / HC Ab480) VH: QMQLVQSGAEVKKPGSSVKVSCKASGFNIKDYYLHWVRQAPGKGLEWMGWIDPDQGDTEYAQKFQGRVTITRDRSTSTAYMELRSLRAEDTAVYYCNAAYGSSSYPMDYWGQGTLVTVSS VL: NIQMTQSPSSLSASVGDRVTITCKASQDIHRYLSWYQQKPGKAPKHLIYRANRLVSGVPSRFSGSGSGTEFTLTISSLQPEDFATYYCLQYDEFPYTFGGGTKVEIK"
1.36 nM,0.00426 s⁻¹,3.13e+06 M⁻¹ s⁻¹,"Ab495/Ab356 (antibody, V domains shown, also called LC Ab495 / HC Ab356) VH: QMQLVQSGAEVKKPGSSVKVSCKASGFNIKDYYLHWVRQAPGKGLEWMGWIDPDQGDTEYAQKFQGRVTITRDRSTSTAYMELRSLRAEDTAVYYCNAAYGSSSYPMDYWGQGTTVTVSS VL: NIQMTQSPSSLSASVGDRVTITCKASQDIHRYLSWYQQKPGKAPKHLIYRANRLVSGVPSRFSGSGSGTEFTLTISSLQPEDFATYYCLQYDEFPYTFGGGTKVEIK"
2.42 nM,0.00622 s⁻¹,2.57e+06 M⁻¹ s⁻¹,"Ab480/Ab1127 (antibody, V domains shown, FR and CDR L2 variant; Label printed HC first; r460 used; also called HC Ab480 / LC Ab1127) VH: QMQLVQSGAEVKKPGSSVKVSCKASGFNIKDYYLHWVRQAPGKGLEWMGWIDPDQGDTEYAQKFQGRVTITRDRSTSTAYMELRSLRAEDTAVYYCNAAYGSSSYPMDYWGQGTLVTVSS VL: NIQMTQSPSSLSASVGDRVTITCRASQDIHRYLSWFQQKPGKVPKHLIYRESRFVDGVPSRFSGSGSGTEFTLTISSLQPEDFATYYCLQYDEFPYTFGGGTKVEIK"
